Test results: publication PMC12503259, “Establishment of an in vivo analytical method for detecting total anti-UFH activity and pharmacokinetic study in PS and R15 in rats” (PLOS One, 2025)

Legend:
[1] = Pharmacokinetic study in Wistar rats, total anti-heparin activity in plasma (fixed UFH added, residual UFH by anti-FXa kit); assay type: in vivo
Description: Processing of Plasma Samples: 100 μL of the unknown plasma sample was added to 500 μL of 75% methanol (methanol: water = 75:25, v/v) and vortex-mixed for 5 seconds. The mixture was then centrifuged at 12,000 r/min for 10 minutes at 25°C. The supernatant (500 μL) was collected and dried under nitrogen at 60°C. Subsequently, UFH (0.14 U·mL^-1 for PS and 0.15 U·mL^-1 for R15; 120 μL) was added, and the mixture was vigorously shaken at room temperature for 10 minutes. The residual UFH content was measured using the Heparin Anti-FXa assay kit.
The detailed procedure is as follows: Accurately pipette 40 μL of the sample into a 96-well plate. Place the plate in a microplate shaker. Using a multichannel pipette, add 40 μL of reagent R1 and mix by shaking. Incubate at 37 °C for exactly 3 minutes (start timing upon addition of R1; at 50 seconds, begin shaking with the microplate shaker for 1 minute, then place the plate in the incubator). Remove the 96-well plate from the incubator and place it on the open microplate shaker. Using a multichannel pipette, add 40 μL of reagent R2 to each well and incubate at 37 °C for 6 minutes (after adding R2, at 3 minutes and 50 seconds, open the microplate shaker and shake for 4 minutes, then return the plate to the incubator). Remove the 96-well plate from the incubator and place it on the open microplate shaker. Quickly add 40 μL of reagent R3 using a multichannel pipette and shake until 9 minutes and 10 seconds. At 9 minutes and 30 seconds, add 80 μL of 20% acetic acid to each well to terminate the reaction. Measure the absorbance at 405 nm using a microplate reader (Multiskan FC, Thermo Fisher US).
Eight Wistar rats (approximately 250 g; equally divided by sex and acclimatized for 1 week in the animal facility) were used for profiling pharmacokinetics of PS. Each rat was cannulated in carotid artery to collect blood the day before the experiment. PS was injected through the tail vein and blood samples were collected at 0 min, 1 min, 3 min, 5 min, 7 min, 9 min, 11 min, 15 min, 20 min, 30 min, 60 min and 120 min in a tube containing 4% sodium citrate. Plasma was achieved by centrifugation at 8000 r/min for 10 min, and stored in the refrigerator at −80°C. […]
During the analysis of actual samples, a standard curve and a series of calibration standards were established for each analytical batch to determine the concentration of PS and R15 in plasma. The concentrations were plotted on the X-axis, and the data were fitted using Equation (3).
Weighted least squares regression was used for the calculations. The Optical Density (OD) values of the unknown biological samples were substituted into the equation to determine the concentration of PS and R15, respectively.
Pharmacokinetic parameters of PS were calculated by WinNonlin 6.4, and all data were processed by Microsoft Excel 2013 and GraphPad Prism 8.3.

complement = conditions: under UFH excess; cited from earlier work
Description: PS and UFH-PS complexes activate complement. Complement fragments can accumulate in the pulmonary microcirculation, up-regulate endothelial adhesion molecules, and recruit neutrophils and monocytes, forming inflammatory microthrombi.

[2] = clinical use; cited from earlier work
Description: PS is a cationic protein mixture with a molecular weight of 4000–6000 Da, and is the only heparin antagonist approved for clinical use. PS is primarily extracted from the sperm of wild salmon species, and this cationic protein binds to the anionic heparin, forming a UFH-PS complex that neutralizes the activity of heparin [7–10]. However, PS is associated with several adverse reactions in clinical applications, such as systemic hypotension, pulmonary hypertension, and allergic reactions. Despite extensive exploration of its mechanisms, the underlying causes of PS-related a ...

[3] = test system: activated partial thromboplastin time (APTT); conditions: in vitro, supratherapeutic amounts; cited from earlier work
[4] = PS 300 U/kg iv, rat 1# (male), single animal
[5] = PS 300 U/kg iv, rat 2# (male), single animal
[6] = PS 300 U/kg iv, rat 3# (male), single animal, not included in mean
[7] = PS 300 U/kg iv, rat 6# (male), single animal
[8] = PS 300 U/kg iv, rat 11# (female), single animal
[9] = PS 300 U/kg iv, rat 12# (female), single animal
[10] = PS 300 U/kg iv, rat 13# (female), single animal
[11] = PS 300 U/kg iv, rat 14# (female), single animal, not included in mean
[12] = PS 300 U·kg^-1 single iv tail vein, Wistar rats, Total (male and female), mean ± SD, n = 6, rats 3# and 14# excluded
[13] = PS 300 U·kg^-1 single iv tail vein, Wistar rats, female, mean ± SD, rat 14# excluded
[14] = PS 300 U·kg^-1 single iv tail vein, Wistar rats, male, mean ± SD, rat 3# excluded

Protamine sulfate [PS]
plasma concentration ([1]; PS 300 U/kg iv, 1 min, Mean±SD): 12190 ± 1890 ng/mL | plasma concentration ([1]; PS 300 U/kg iv, 3 min, Mean±SD): 3410 ± 1620 ng/mL | plasma concentration ([1]; PS 300 U/kg iv, 5 min, Mean±SD): 1760 ± 440 ng/mL | plasma concentration ([1]; PS 300 U/kg iv, 7 min, Mean±SD): 910 ± 290 ng/mL | plasma concentration ([1]; PS 300 U/kg iv, 9 min, Mean±SD): 820 ± 260 ng/mL | plasma concentration ([1]; PS 300 U/kg iv, 11 min, Mean±SD): 670 ± 210 ng/mL | plasma concentration ([1]; PS 300 U/kg iv, 15 min, Mean±SD): 550 ± 90 ng/mL | plasma concentration ([1]; PS 300 U/kg iv, 20 min, Mean±SD column (one rat)): 430 ng/mL | plasma concentration ([1]; PS 300 U/kg iv, 20 min, rat 6#): 430 ng/mL | AUC [1, 4]: 35.86 min･µg･mL^-1 | CL [1, 4]: 53.74 mL･min^-1･kg^-1 | Cmax [1, 4]: 12.10 µg･mL^-1 | MRT [1, 4]: 2.51 min | T1/2 [1, 4]: 1.72 min | Vd [1, 4]: 134 mL･kg^-1 | AUC [1, 5]: 42.97 min･µg･mL^-1 | CL [1, 5]: 41.70 mL･min^-1･kg^-1 | Cmax [1, 5]: 15.14 µg･mL^-1 | MRT [1, 5]: 3.20 min | T1/2 [1, 5]: 7.06 min | Vd [1, 5]: 425 mL･kg^-1 | AUC [1, 6]: 17.83 min･µg･mL^-1 | Cmax [1, 6]: 11.17 µg･mL^-1 | MRT [1, 6]: 1.12 min | AUC [1, 7]: 45.62 min･µg･mL^-1 | CL [1, 7]: 39.21 mL･min^-1･kg^-1 | Cmax [1, 7]: 14.12 µg･mL^-1 | MRT [1, 7]: 4.40 min | T1/2 [1, 7]: 8.65 min | Vd [1, 7]: 489 mL･kg^-1 | AUC [1, 8]: 29.16 min･µg･mL^-1 | CL [1, 8]: 66.07 mL･min^-1･kg^-1 | Cmax [1, 8]: 12.55 µg･mL^-1 | MRT [1, 8]: 2.12 min | T1/2 [1, 8]: 1.64 min | Vd [1, 8]: 156 mL･kg^-1 | AUC [1, 9]: 33.06 min･µg･mL^-1 | CL [1, 9]: 55.19 mL･min^-1･kg^-1 | Cmax [1, 9]: 12.70 µg･mL^-1 | MRT [1, 9]: 2.49 min | T1/2 [1, 9]: 2.18 min | Vd [1, 9]: 173 mL･kg^-1 | AUC [1, 10]: 28.68 min･µg･mL^-1 | CL [1, 10]: 66.01 mL･min^-1･kg^-1 | Cmax [1, 10]: 9.40 µg･mL^-1 | MRT [1, 10]: 2.97 min | T1/2 [1, 10]: 2.41 min | Vd [1, 10]: 229 mL･kg^-1 | AUC [1, 11]: 18.80 min･µg･mL^-1 | CL [1, 11]: 97.21 mL･min^-1･kg^-1 | Cmax [1, 11]: 10.34 µg･mL^-1 | MRT [1, 11]: 1.46 min | T1/2 [1, 11]: 1.20 min | Vd [1, 11]: 168 mL･kg^-1 | Cmax ([1]; PS 300 U·kg^-1 single iv tail vein, Wistar rats, Total (male and female), at 1 min, mean ± SD, n = 6, rats 3# and 14# excluded): 12.67 ± 1.96 µg/mL | AUC [1, 12]: 35.89 ± 7.07 µg·min/mL | CL [1, 12]: 53.65 ± 11.49 mL/min/kg | MRT [1, 12]: 2.95 ± 0.81 min | T1/2 [1, 12]: 3.94 ± 3.08 min | Vd [1, 12]: 268 ± 151 mL/kg | AUC [1, 13]: 30.30 ± 2.40 µg·min/mL | CL [1, 13]: 62.42 ± 6.26 mL/min/kg | Cmax [1, 13]: 11.55 ± 1.86 µg/mL | MRT [1, 13]: 2.53 ± 0.43 min | T1/2 [1, 13]: 2.08 ± 0.40 min | Vd [1, 13]: 186 ± 38 mL/kg | AUC [1, 14]: 41.48 ± 5.05 µg·min/mL | CL [1, 14]: 44.88 ± 7.77 mL/min/kg | Cmax [1, 14]: 13.79 ± 1.55 µg/mL | MRT [1, 14]: 3.37 ± 0.96 min | T1/2 [1, 14]: 5.81 ± 3.63 min | Vd [1, 14]: 349 ± 189 mL/kg | complement activation by UFH-PS complex relative to UFH–R15 complex (complement): 8.28 fold | rate of mild adverse reactions [2]: ≤ 16% | effect of excess on APTT [3]: persistently prolonged APTT
